The target in this test is T1, recombinant mouse E-selectin-human Fc chimera (mouse, UniProt Q00690 22-557).
T1 construct: Bought reagent (R&D Systems); Used as the probe in western blots and detected with HRP goat anti-human Ig; also called E-selectin-Ig chimera; E-Ig; not shown: human Fc
T1 sequence (looked up): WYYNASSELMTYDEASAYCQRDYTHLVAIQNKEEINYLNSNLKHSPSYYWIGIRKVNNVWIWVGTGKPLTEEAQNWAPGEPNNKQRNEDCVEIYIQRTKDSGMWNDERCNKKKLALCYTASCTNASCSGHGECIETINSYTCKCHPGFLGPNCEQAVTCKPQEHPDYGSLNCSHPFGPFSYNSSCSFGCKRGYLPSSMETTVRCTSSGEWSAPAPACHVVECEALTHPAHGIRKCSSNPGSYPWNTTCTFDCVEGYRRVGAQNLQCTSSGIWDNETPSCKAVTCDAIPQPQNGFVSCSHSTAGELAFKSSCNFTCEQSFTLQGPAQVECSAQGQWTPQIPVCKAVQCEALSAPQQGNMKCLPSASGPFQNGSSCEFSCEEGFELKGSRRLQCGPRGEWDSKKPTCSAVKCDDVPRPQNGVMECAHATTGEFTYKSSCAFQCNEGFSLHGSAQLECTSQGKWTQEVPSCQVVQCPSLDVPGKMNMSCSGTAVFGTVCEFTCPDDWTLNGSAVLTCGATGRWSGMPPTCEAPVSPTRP
Put plainly: western blot of ML lysates and WGA-purified glycoproteins, reducing SDS-PAGE.

B1: P-selectin glycoprotein ligand-1 (PSGL-1), Cutaneous Lymphocyte Antigen glycoform, from ML lysates (ligand, human, UniProt Q14242 42-412, looked up)
chain: QATEYEYLDYDFLPETEPPEMLRNSTDTTPLTGPGTPESTTVEPAARRSTGLDAGGAVTELTTELANMGNLSTDSAAMEIQTTQPAATEAQTTQPVPTEAQTTPLAATEAQTTRLTATEAQTTPLAATEAQTTPPAATEAQTTQPTGLEAQTTAPAAMEAQTTAPAAMEAQTTPPAAMEAQTTQTTAMEAQTTAPEATEAQTTQPTATEAQTTPLAAMEALSTEPSATEALSMEPTTKRGLFIPFSVSSVTHKGIPMAASNLSVNYPVGAPDHISVKQCLLAILILALVATIFFVCTVVLAVRLSRKGHMYPVRNYSPTEMVCISSLLPDGGEGPSATANGGLSKAKSPGLTPEPREDREGDDLTLHSFLP
modifications: sialofucosylated glycans
notes: Named only by the position of its band in the blot; also called CLA; ~140 kDa E-selectin ligand
With B1, the binding result is “binds”.
